Experimental data taken from article PMC1807944.
Where two headings read alike, the source gives them in different places.

Key:
Test in all cases: SAXS titration
[1] = target: T1, HIV-1 integrase (IN), monomer E (HIV-1, UniProt P04585 1148-1435)
[2] = target: T1, HIV-1 integrase (IN), monomer E; remark: listed apart in the source
[3] = target: T1, HIV-1 integrase (IN), monomer E; remark: listed apart in the source

AAAAA (ssDNA) [ss A5]
Kd [1]: 2.6 ± 0.4 µM

GCAGT (ssDNA) [ss GCAGT]
Kd [1]: 7.1 ± 0.7 µM

GTGTGGAAAATCTCTAGCA (ssDNA) [ss 19-CA]
Kd [2]: 0.03 ± 0.015 µM

GTGTGGAAAATCTCTAGCAGT (ssDNA) [ss 21-GT]
Kd [3]: 0.0106 ± 0.01 µM
